# According to publication PMC12838833:
# Molecular target: Staphylococcus aureus DltA (D-alanine-D-alanyl carrier protein ligase) (Staphylococcus aureus) (UniProt Q2FZW6)
# Chain of UniProt Q2FZW6 (Q2FZW6 whole entry): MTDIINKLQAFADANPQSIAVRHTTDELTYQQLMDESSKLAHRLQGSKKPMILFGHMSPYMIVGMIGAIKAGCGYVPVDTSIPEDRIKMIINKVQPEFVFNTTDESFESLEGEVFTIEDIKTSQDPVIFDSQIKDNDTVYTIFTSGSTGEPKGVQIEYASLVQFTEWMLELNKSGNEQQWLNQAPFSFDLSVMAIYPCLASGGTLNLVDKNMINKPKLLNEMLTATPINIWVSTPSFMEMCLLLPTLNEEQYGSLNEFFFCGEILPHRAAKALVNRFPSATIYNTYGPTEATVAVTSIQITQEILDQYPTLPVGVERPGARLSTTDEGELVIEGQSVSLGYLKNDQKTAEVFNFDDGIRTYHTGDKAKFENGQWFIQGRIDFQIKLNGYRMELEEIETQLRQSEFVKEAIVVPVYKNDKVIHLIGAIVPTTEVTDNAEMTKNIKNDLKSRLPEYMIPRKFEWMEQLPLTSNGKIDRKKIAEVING
binder,measurement,value
"Wild-type Staphylococcus aureus D-alanyl carrier protein DltC (natural protein, 4'-phosphopantetheine (Ppant) on Ser36 (co-expressed with AcpS to produce Ppant-attached SaDltC)) MEFREQVLNLLAEVAENDIVKENPDVEIFEEGIIDSFQTVGLLLEIQNKLDIEVSIMDFDRDEWATPNKIVEALEELR","SaDltA adenylation activity (pyrophosphate detection assay, initial rates; 5 uM SaDltA with 300 uM SaDltC, 37 °C), increase over SaDltA alone",22.3 fold
